Test results reported in article PMC4990258, “Mutations at the Subunit Interface of Yeast Proliferating Cell Nuclear Antigen Reveal a Versatile Regulatory Domain” (PLoS ONE, 2016).

Molecular target: T1, GST-Rev1 (full-length Rev1) (S. cerevisiae, UniProt P12689 1-985)
T1 construct: Rev1, yeast, full-length; Held on the beads by GST during the incubation; Rev1 was cut from GST by PreScission protease only at the elution step; not shown: GST, N-terminal, kept
T1 sequence (looked up): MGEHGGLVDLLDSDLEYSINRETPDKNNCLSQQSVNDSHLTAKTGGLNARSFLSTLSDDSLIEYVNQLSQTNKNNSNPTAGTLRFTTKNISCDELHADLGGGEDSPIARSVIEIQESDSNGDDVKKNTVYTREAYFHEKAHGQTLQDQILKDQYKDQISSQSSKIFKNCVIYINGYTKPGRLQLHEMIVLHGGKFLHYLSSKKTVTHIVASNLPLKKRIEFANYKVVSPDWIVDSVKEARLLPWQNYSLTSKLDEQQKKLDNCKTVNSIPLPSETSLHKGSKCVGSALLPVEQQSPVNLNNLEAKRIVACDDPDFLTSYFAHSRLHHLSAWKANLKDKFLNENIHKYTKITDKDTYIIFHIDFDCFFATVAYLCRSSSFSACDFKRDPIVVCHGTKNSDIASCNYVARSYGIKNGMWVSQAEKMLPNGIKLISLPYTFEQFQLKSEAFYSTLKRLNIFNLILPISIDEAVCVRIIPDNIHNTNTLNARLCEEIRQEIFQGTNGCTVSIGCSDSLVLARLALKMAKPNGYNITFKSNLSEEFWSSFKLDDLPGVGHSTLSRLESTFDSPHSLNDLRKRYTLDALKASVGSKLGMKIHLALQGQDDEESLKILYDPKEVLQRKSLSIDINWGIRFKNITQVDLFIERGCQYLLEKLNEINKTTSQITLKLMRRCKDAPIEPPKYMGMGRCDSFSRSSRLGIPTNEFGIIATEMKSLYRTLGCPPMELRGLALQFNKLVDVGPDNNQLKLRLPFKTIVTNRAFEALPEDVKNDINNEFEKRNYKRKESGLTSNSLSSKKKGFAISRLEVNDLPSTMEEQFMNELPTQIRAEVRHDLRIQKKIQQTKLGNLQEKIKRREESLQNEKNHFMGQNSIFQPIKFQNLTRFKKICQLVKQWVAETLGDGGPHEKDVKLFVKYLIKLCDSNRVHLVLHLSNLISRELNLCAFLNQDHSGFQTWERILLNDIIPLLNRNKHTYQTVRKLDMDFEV
Assay: pull-down; GST-Rev1 (5 μg) immobilised on glutathione-Sepharose beads, incubated with purified PCNA (3 μg) overnight on ice; 50 mM Tris/HCl pH 7.5, 100 mM NaCl, 1 mM EDTA, 1 mM DTT, 10% glycerol, 0.01% Nonidet P-40; five washes; eluted by PreScission protease cleavage of Rev1 from GST; SDS-PAGE
Conditions: both partners purified

B1: wild type PCNA (proliferating cell nuclear antigen, Saccharomyces cerevisiae) (natural protein, S. cerevisiae)
chain: MLEAKFEEASLFKRIIDGFKDCVQLVNFQCKEDGIIAQAVDDSRVLLVSLEIGVEAFQEYRCDHPVTLGMDLTSLSKILRCGNNTDTLTLIADNTPDSIILLFEDTKKDRIAEYSLKLMDIDADFLKIEELQYDSTLSLPSSEFSKIVRDLSQLSDSINIMITKETIKFVADGDIGSGSVIIKPFVDMEHPETSIKLEMDQPVDLTFGAKYLLDIIKGSSLSDRVGIRLSSEAPALFQFDLKSGFLQFFLAPKFNDEE
notes: PCNA (POL30 gene product), Saccharomyces cerevisiae, wild type; the oligomeric state of the purified protein was not measured here; also called wt PCNA; yeast PCNA; source: yeast BJ5464, overexpressed as GST fusion, purified on glutathione-Sepharose 4B, GST removed by PreScission protease; not shown: GST, N-terminal, cleaved
binding result: binds
